Measurements published in PMC7710921 (Structure (London, England : 1993), 2020).

T1: His-tagged Rap74 (human, UniProt P35269 1-517)
T1 sequence (looked up): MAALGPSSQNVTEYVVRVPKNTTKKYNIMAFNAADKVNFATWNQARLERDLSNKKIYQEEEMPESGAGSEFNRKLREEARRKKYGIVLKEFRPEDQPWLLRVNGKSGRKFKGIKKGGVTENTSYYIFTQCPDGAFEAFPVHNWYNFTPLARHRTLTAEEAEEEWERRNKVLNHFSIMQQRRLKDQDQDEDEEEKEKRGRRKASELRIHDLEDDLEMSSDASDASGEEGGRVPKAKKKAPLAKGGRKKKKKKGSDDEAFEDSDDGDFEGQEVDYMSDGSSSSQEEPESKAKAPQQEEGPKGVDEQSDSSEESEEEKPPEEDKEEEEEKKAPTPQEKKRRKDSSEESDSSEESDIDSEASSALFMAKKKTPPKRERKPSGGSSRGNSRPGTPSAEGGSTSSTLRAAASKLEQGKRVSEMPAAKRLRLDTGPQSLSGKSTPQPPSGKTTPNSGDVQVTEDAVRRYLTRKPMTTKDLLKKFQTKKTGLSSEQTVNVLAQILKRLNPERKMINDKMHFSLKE


Legend:
[1] = biological target: unlabelled hTBP (human TATA-box Binding Protein) (human) (UniProt P20226); assay: single-molecule two-colour nanometer co-localisation
His-tagged Rap74 = biological target: T1, His-tagged Rap74; assay: reconstitution by refolding and Ni-NTA co-purification

percent of TFIIA spots co-localised with TATA-box DNA in the presence of TBP [1] | binding result (His-tagged Rap74) | Molecule
45% | – | Alexa647-labelled hTFIIA (from UniProt P52655 1-376; P52657 1-109) (complex)
– | binds | Rap30 (natural protein, human, UniProt P13984 1-249, looked up) MAERGELDLTGAKQNTGVWLVKVPKYLSQQWAKASGRGEVGKLRIAKTQGRTEVSFTLNEDLANIHDIGGKPASVSAPREHPFVLQSVGGQTLTVFTESSSDKLSLEGIVVQRAECRPAASENYMRLKRLQIEESSKPVRLSQQLDKVVTTNYKPVANHQYNIEYERKKKEDGKRARADKQHVLDMLFSAFEKHQYYNLKDLVDITKQPVVYLKEILKEIGVQNVKGIHKNTWELKPEYRHYQGEEKSD
